From patent US20030044896
Numbering of substitutions follows the chain as printed.

T1: Mas-DH+Gly (42 amino acid precursor of Manduca sexta diuretic hormone)
T1 chain: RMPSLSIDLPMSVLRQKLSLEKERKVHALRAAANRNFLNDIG

T2: Mas-DH[K22Q]+Gly
T2 chain: T1 chain with K22Q

B1: Mkc7 endoprotease (encoded by MKC7) (protein)
chain: DDDYELVELTNQNSFYSVELDIGTPPQKVTVLVDTGSSDLWVTGSDNPYCSTKKKDTTGSSFKQVNKDALASVVESVFTEISYDTTIVTSEATATFDSTASTSQLIDCATYGTFNTSKSSTFNSNNTEFSIAYGDTTFASGTWGHDQLSLNDLNITGLSFAVANETNSTVGVLGIGLPGLESTYSGVSLSSVQKSYTYNNFPMVLKNSGVIKSTAYSLFANDSDSKHGTILFGAVDHGKYAGDLYTIPIINTLQHRGYKDPIQFQVTLQGLGTSKGDKEDNLTTLTTTKIPVLLDSGTTISYMPTELVKMLADQVGATYSSAYGYYIMDCIKEMEEESSIIFDFGGFYLSNWLSDFQLVTDSRSNICILGIAPQSDPTIILGDNFLANTYVVYDLDNMEISMAQANFSDDGEYIEIIESAVPSALKAPGYSSTWSTYESIVSGGNMFSTAANSSISYFASTSHSATSSSSSKGQKTQTSTTALSISKSTSSTSSTGMLSPTSSSSTRKEN
B2: Yap3 endoprotease (Yeast Aspartyl Protease 3, encoded by YAP3) (protein)
chain: ADGYEEIIITNQQSFYSVDLEVGTPPQNVTVLVDTGSSDLWIMGSDNPYCSSNSMGSSRRRVIDKRDDSSSGGSLINDINPFGWLTGTGSAIGPTATGLGGGSGTATQSVPASEATMDCQQYGTFSTSGSSTFRSNNTYFSISYGDGTFASGTFGTDVLDLSDLNVTGLSFAVANETNSTMGVLGIGLPELEVTYSGSTASHSGKAYKYDNFPIVLKNSGAIKSNTYSLYLNDSDAMHGTILFGAVDHSKYTGTLYTIPIVNTLSASGFSSPIQFDVTINGIGISDSGSSNKTLTTTKIPALLDSGTTLTYLPQTVVSMIATELGAQYSSRIGYYVLDCPSDDSMEIVFDFGGFHINAPLSSFILSTGTTCLLGIIPTSDDTGTILGDSFLTNAYVVYDLENLEISMAQARYNTTSENIEIITSSVPSAVKAPGYTNTWSTSASIVTGGNIFTVNSSQTASFSGNLTTSTASATSTSSKRN

Key:
[1] = target: T1, Mas-DH+Gly (42 amino acid precursor of …)
[2] = target: T2, Mas-DH[K22Q]+Gly

Row | Protein | proteolytic fragments recovered from culture medium of protease deletion strains (RPLC, ESI-MS) [1] | proteolytic fragments recovered from culture medium of the yap3 deletion strain HKY20[pKSC3] (RPLC, ESI-MS) [2] | proteolytic fragments recovered from culture medium of the mkc7 deletion strain HKY21[pKSC3] (RPLC, ESI-MS) [2]
1 | B1 | both Yap3 and Mkc7 are capable of contributing to the cleavage of Mas-DH+Gly at the Lys^22 residue, as well as at other sites | suggesting that Mkc7 cleaved after Lys^25 | –
2 | B2 | both Yap3 and Mkc7 are capable of contributing to the cleavage of Mas-DH+Gly at the Lys^22 residue, as well as at other sites | – | suggesting that Yap3 cleaved after Arg at the two sites E R ↓ K V and L R ↓ Q K
